# Data taken from PMC12416549 (2024).
# T1: TNFR1 (Homo sapiens, UniProt P19438)
# T1 chain: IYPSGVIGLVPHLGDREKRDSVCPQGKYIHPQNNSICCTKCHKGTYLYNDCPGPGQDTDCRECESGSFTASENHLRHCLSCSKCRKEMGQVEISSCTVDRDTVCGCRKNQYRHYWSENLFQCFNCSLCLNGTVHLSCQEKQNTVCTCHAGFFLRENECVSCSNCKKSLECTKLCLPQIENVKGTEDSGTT
# Biological target: T1, TNFR1
# Assay: yeast display SC50
row,Binder,apparent Kd (screen)
1,E14C (designed binder) SMEEEVEKAAKEYCKKKKEAIEKHLEKLKAKDKEAAERFLKELEEAAKEYAKDEAKTMSEEEAKRRAKKYKEKVLLSELSEEEQKEIKEAEEKLVRTILKYVEEAAK,9.41 nM
2,E82T (designed binder) SMEEEVEKAAKEYEKKKKEAIEKHLEKLKAKDKEAAERFLKELEEAAKEYAKDEAKTMSEEEAKRRAKKYKEKVLLSELSETEQKEIKEAEEKLVRTILKYVEEAAK,0.49 nM
3,A47C (designed binder) SMEEEVEKAAKEYEKKKKEAIEKHLEKLKAKDKEAAERFLKELEEACKEYAKDEAKTMSEEEAKRRAKKYKEKVLLSELSEEEQKEIKEAEEKLVRTILKYVEEAAK,0.49 nM
4,E26K (designed binder) SMEEEVEKAAKEYEKKKKEAIEKHLKKLKAKDKEAAERFLKELEEAAKEYAKDEAKTMSEEEAKRRAKKYKEKVLLSELSEEEQKEIKEAEEKLVRTILKYVEEAAK,0.49 nM
5,K52D (designed binder) SMEEEVEKAAKEYEKKKKEAIEKHLEKLKAKDKEAAERFLKELEEAAKEYADDEAKTMSEEEAKRRAKKYKEKVLLSELSEEEQKEIKEAEEKLVRTILKYVEEAAK,0.446 nM
6,S77F (designed binder) SMEEEVEKAAKEYEKKKKEAIEKHLEKLKAKDKEAAERFLKELEEAAKEYAKDEAKTMSEEEAKRRAKKYKEKVLLFELSEEEQKEIKEAEEKLVRTILKYVEEAAK,1.05 nM
7,R96T (designed binder) SMEEEVEKAAKEYEKKKKEAIEKHLEKLKAKDKEAAERFLKELEEAAKEYAKDEAKTMSEEEAKRRAKKYKEKVLLSELSEEEQKEIKEAEEKLVTTILKYVEEAAK,1.54 nM
8,A20T (designed binder) SMEEEVEKAAKEYEKKKKETIEKHLEKLKAKDKEAAERFLKELEEAAKEYAKDEAKTMSEEEAKRRAKKYKEKVLLSELSEEEQKEIKEAEEKLVRTILKYVEEAAK,0.718 nM
9,M2T (designed binder) STEEEVEKAAKEYEKKKKEAIEKHLEKLKAKDKEAAERFLKELEEAAKEYAKDEAKTMSEEEAKRRAKKYKEKVLLSELSEEEQKEIKEAEEKLVRTILKYVEEAAK,0.446 nM
10,A67F (designed binder) SMEEEVEKAAKEYEKKKKEAIEKHLEKLKAKDKEAAERFLKELEEAAKEYAKDEAKTMSEEEAKRRFKKYKEKVLLSELSEEEQKEIKEAEEKLVRTILKYVEEAAK,18.3 nM
11,D32E (designed binder) SMEEEVEKAAKEYEKKKKEAIEKHLEKLKAKEKEAAERFLKELEEAAKEYAKDEAKTMSEEEAKRRAKKYKEKVLLSELSEEEQKEIKEAEEKLVRTILKYVEEAAK,0.956 nM
12,E81C (designed binder) SMEEEVEKAAKEYEKKKKEAIEKHLEKLKAKDKEAAERFLKELEEAAKEYAKDEAKTMSEEEAKRRAKKYKEKVLLSELSCEEQKEIKEAEEKLVRTILKYVEEAAK,0.869 nM
13,K18G (designed binder) SMEEEVEKAAKEYEKKKGEAIEKHLEKLKAKDKEAAERFLKELEEAAKEYAKDEAKTMSEEEAKRRAKKYKEKVLLSELSEEEQKEIKEAEEKLVRTILKYVEEAAK,0.653 nM
14,E89M (designed binder) SMEEEVEKAAKEYEKKKKEAIEKHLEKLKAKDKEAAERFLKELEEAAKEYAKDEAKTMSEEEAKRRAKKYKEKVLLSELSEEEQKEIKMAEEKLVRTILKYVEEAAK,1.05 nM
15,R38K (designed binder) SMEEEVEKAAKEYEKKKKEAIEKHLEKLKAKDKEAAEKFLKELEEAAKEYAKDEAKTMSEEEAKRRAKKYKEKVLLSELSEEEQKEIKEAEEKLVRTILKYVEEAAK,10.4 nM
16,A30L (designed binder) SMEEEVEKAAKEYEKKKKEAIEKHLEKLKLKDKEAAERFLKELEEAAKEYAKDEAKTMSEEEAKRRAKKYKEKVLLSELSEEEQKEIKEAEEKLVRTILKYVEEAAK,0.593 nM
17,K31T (designed binder) SMEEEVEKAAKEYEKKKKEAIEKHLEKLKATDKEAAERFLKELEEAAKEYAKDEAKTMSEEEAKRRAKKYKEKVLLSELSEEEQKEIKEAEEKLVRTILKYVEEAAK,0.593 nM
18,S59L (designed binder) SMEEEVEKAAKEYEKKKKEAIEKHLEKLKAKDKEAAERFLKELEEAAKEYAKDEAKTMLEEEAKRRAKKYKEKVLLSELSEEEQKEIKEAEEKLVRTILKYVEEAAK,1.05 nM

row,Binder,apparent Kd (screen)
1,A90G (designed binder) SMEEEVEKAAKEYEKKKKEAIEKHLEKLKAKDKEAAERFLKELEEAAKEYAKDEAKTMSEEEAKRRAKKYKEKVLLSELSEEEQKEIKEGEEKLVRTILKYVEEAAK,0.49 nM
2,K73M (designed binder) SMEEEVEKAAKEYEKKKKEAIEKHLEKLKAKDKEAAERFLKELEEAAKEYAKDEAKTMSEEEAKRRAKKYKEMVLLSELSEEEQKEIKEAEEKLVRTILKYVEEAAK,0.869 nM
3,K52S (designed binder) SMEEEVEKAAKEYEKKKKEAIEKHLEKLKAKDKEAAERFLKELEEAAKEYASDEAKTMSEEEAKRRAKKYKEKVLLSELSEEEQKEIKEAEEKLVRTILKYVEEAAK,0.446 nM
4,V95R (designed binder) SMEEEVEKAAKEYEKKKKEAIEKHLEKLKAKDKEAAERFLKELEEAAKEYAKDEAKTMSEEEAKRRAKKYKEKVLLSELSEEEQKEIKEAEEKLRRTILKYVEEAAK,7.78 nM
5,E44Q (designed binder) SMEEEVEKAAKEYEKKKKEAIEKHLEKLKAKDKEAAERFLKELQEAAKEYAKDEAKTMSEEEAKRRAKKYKEKVLLSELSEEEQKEIKEAEEKLVRTILKYVEEAAK,0.653 nM
6,L94S (designed binder) SMEEEVEKAAKEYEKKKKEAIEKHLEKLKAKDKEAAERFLKELEEAAKEYAKDEAKTMSEEEAKRRAKKYKEKVLLSELSEEEQKEIKEAEEKSVRTILKYVEEAAK,12.5 nM
7,A9N (designed binder) SMEEEVEKNAKEYEKKKKEAIEKHLEKLKAKDKEAAERFLKELEEAAKEYAKDEAKTMSEEEAKRRAKKYKEKVLLSELSEEEQKEIKEAEEKLVRTILKYVEEAAK,0.869 nM
8,R96S (designed binder) SMEEEVEKAAKEYEKKKKEAIEKHLEKLKAKDKEAAERFLKELEEAAKEYAKDEAKTMSEEEAKRRAKKYKEKVLLSELSEEEQKEIKEAEEKLVSTILKYVEEAAK,2.48 nM
9,L28A (designed binder) SMEEEVEKAAKEYEKKKKEAIEKHLEKAKAKDKEAAERFLKELEEAAKEYAKDEAKTMSEEEAKRRAKKYKEKVLLSELSEEEQKEIKEAEEKLVRTILKYVEEAAK,0.718 nM
10,A105F (designed binder) SMEEEVEKAAKEYEKKKKEAIEKHLEKLKAKDKEAAERFLKELEEAAKEYAKDEAKTMSEEEAKRRAKKYKEKVLLSELSEEEQKEIKEAEEKLVRTILKYVEEFAK,3 nM
11,A51F (designed binder) SMEEEVEKAAKEYEKKKKEAIEKHLEKLKAKDKEAAERFLKELEEAAKEYFKDEAKTMSEEEAKRRAKKYKEKVLLSELSEEEQKEIKEAEEKLVRTILKYVEEAAK,0.593 nM
12,M58Q (designed binder) SMEEEVEKAAKEYEKKKKEAIEKHLEKLKAKDKEAAERFLKELEEAAKEYAKDEAKTQSEEEAKRRAKKYKEKVLLSELSEEEQKEIKEAEEKLVRTILKYVEEAAK,11.4 nM
13,K23H (designed binder) SMEEEVEKAAKEYEKKKKEAIEHHLEKLKAKDKEAAERFLKELEEAAKEYAKDEAKTMSEEEAKRRAKKYKEKVLLSELSEEEQKEIKEAEEKLVRTILKYVEEAAK,0.49 nM
14,E81Y (designed binder) SMEEEVEKAAKEYEKKKKEAIEKHLEKLKAKDKEAAERFLKELEEAAKEYAKDEAKTMSEEEAKRRAKKYKEKVLLSELSYEEQKEIKEAEEKLVRTILKYVEEAAK,0.653 nM
15,K18F (designed binder) SMEEEVEKAAKEYEKKKFEAIEKHLEKLKAKDKEAAERFLKELEEAAKEYAKDEAKTMSEEEAKRRAKKYKEKVLLSELSEEEQKEIKEAEEKLVRTILKYVEEAAK,0.869 nM
16,L94T (designed binder) SMEEEVEKAAKEYEKKKKEAIEKHLEKLKAKDKEAAERFLKELEEAAKEYAKDEAKTMSEEEAKRRAKKYKEKVLLSELSEEEQKEIKEAEEKTVRTILKYVEEAAK,0.446 nM
17,E45P (designed binder) SMEEEVEKAAKEYEKKKKEAIEKHLEKLKAKDKEAAERFLKELEPAAKEYAKDEAKTMSEEEAKRRAKKYKEKVLLSELSEEEQKEIKEAEEKLVRTILKYVEEAAK,7.78 nM
